T1: M (46-109)
T1 sequence (O43653 whole entry, species assumed, looked up): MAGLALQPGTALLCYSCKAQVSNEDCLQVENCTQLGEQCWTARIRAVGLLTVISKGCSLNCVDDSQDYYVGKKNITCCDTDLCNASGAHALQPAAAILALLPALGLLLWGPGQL

T2: PSCA-glutathione S-transferase (GST) fusion protein (human) (UniProt O43653)
T2 sequence: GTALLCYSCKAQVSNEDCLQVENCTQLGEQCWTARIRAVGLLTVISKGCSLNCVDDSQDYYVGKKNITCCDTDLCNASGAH


Key:
Assay in all cases: ELISA: GST-PSCA fusion protein 50 ng/well, hybridoma supernatant, anti-mouse-HRP, TMB; mean of duplicates
[1] = substrate: T3, C (85-123)
T3 sequence (O43653 whole entry, species assumed, looked up): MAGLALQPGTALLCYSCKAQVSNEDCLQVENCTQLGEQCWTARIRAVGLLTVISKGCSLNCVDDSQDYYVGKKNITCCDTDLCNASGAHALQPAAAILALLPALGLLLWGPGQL

[2] = substrate: T4, N (2-50)
T4 sequence (O43653 whole entry, species assumed, looked up): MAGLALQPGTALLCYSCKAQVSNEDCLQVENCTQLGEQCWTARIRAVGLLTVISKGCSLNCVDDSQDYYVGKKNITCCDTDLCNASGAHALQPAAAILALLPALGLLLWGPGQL

M (46-109) = target: T1, M (46-109)
[3] = target: T2, PSCA-glutathione S-transferase (GST) fusion protein (human)

Row | OD 450 nm [1] [OD 450 nm] | OD 450 nm [2] [OD 450 nm] | OD 450 nm (M (46-109)) [OD 450 nm] | OD 450 nm [3] [OD 450 nm] | Binder
1 | 0.003 | 0.004 | 1.27 | 1.49 | anti-PSCA monoclonal antibody 1G8 (antibody, part only; not given: light chain, mouse IgG1, V domains shown, part only) VH: CFFLMAVVIGVNSEVQLQQSGAELVRSGASVKLSCTASGFNIKDYYIHWVNQRPDQGLEWIGWIDPENGDTEFVPKFQGKATMTADIFSNTAYLHLSSLTSEDTAVYYCKTGGFWGQGTLVTVSAAKTTPPSVYPL
2 | 0.001 | 1.03 | 0.002 | 1.07 | anti-PSCA monoclonal antibody 2H9 (antibody, part only; not given: light chain, mouse IgG1, part only) VH: NDFGLSWVFIIVLLKGVRSEVRLEESGGGWVQPGGSMKLSCVASGFTFSNYWMTWVRQSPEKGLEWVAEIRLRSENYATHYAESVKGKFTISRDDSRSRLYLQMNNLRPEDSGIYYCTDGLGRPNWGQGTLVTVSAAKTTPPSVYPLAPCV
3 | 0.001 | 0.493 |  | 1.05 | anti-PSCA monoclonal antibody 4A10 (antibody, part only; not given: light chain, mouse IgG2a, V domains shown, part only) VH: LVATASDVHSQVQLQQPGSELVRPGTSVKLSCKASGYTFSSYWMHWVKQRPGQGLEWIGNIDPGSGYTNYAENLKTKATLTVDTSSSTAYMQLSSLTSEDSAVYYCTSRSTMITTGFAYWGQGTLVTVSAATTTAPSVYPLA
